In patent US12692524B2, “Sialyltransferases and their use in producing sialylated oligosaccharides” (Chr. Hansen A/S, priority 2017, dated 2026):

Legend:
[1] = In vitro sialylation of LNT by protein extracts, LST-a/-b quantified by LC-MS/MS; format: biochemical; conditions: 5 mM LNT, 10 mM CMP-Neu5Ac, 16 hours, LC-MS/MS; relative quantity; n.d.: not detectable
Procedure: Escherichia coli BL21(DE3) harbouring plamids encoding for 100 sialyltransferases were grown at 30° C. in 100 ml shake flasks filled with 20 ml of 2YT medium supplemented with ampicillin 100 μg ml^−1. When the cultures reached an OD600 of 0.1 to 0.3, gene expression was induced by addition of 0.3 mM IPTG and the incubation was continued for 12 to 16 hours. Cells were harvested by centrifugation and mechanically disrupted in a defined volume of 50 mM Tris-HCl pH7.5 using glass beads. The protein extract was kept on ice until the assay started. The in vitro assay was carried out in a total volume of 25 μl including 50 mM Tris-HCl pH7.5, 5 mM MgCl2, 10 mM CMP-Neu5Ac and 5 mM LNT. The assay started with the addition of 3 μl protein extract and continued for 16 hours. Product formation was determined by mass spectrometry.
Mass spectrometry analysis was performed by MRM (multiple reaction monitoring) using a LC Triple-Quadrupole MS detection system. Precursor ions are selected and analyzed in quadrupole 1, fragmentation takes place in the collision cell using argon as CID gas, selection of fragment ions is performed in quadrupole 3. Chromatographic separation of lactose, 3′-Sialyllactose and 6′-Sialyllactose after dilution of culture supernatant 1:100 with H2O (LC/MS Grade), was performed on a XBridge Amide HPLC column (3.5 μm, 2.1×50 mm (Waters, USA) with a XBridge Amide guard cartridge (3.5 μm, 2.1×10 mm) (Waters, USA). Column oven temperature of the HPLC system was 50° C. The mobile phase was composed of acetonitrile:H2O with 10 mM ammonium acetate. A 1 μl sample was injected into the instrument; the run was performed for 3.60 min with a flow rate of 400 μl/min. 3′-Sialyllactose and 6′-Sialyllactose were analyzed by MRM in ESI positive ionization mode. The mass spectrometer was operated at unit resolution. Sialyllactose forms an ion of m/z 656.2 [M+Na]. The precursor ion of Sialyllactose was further fragmented in the collision cell into the fragment ions m/z 612.15, m/z 365.15 and m/z 314.15. Collision energy, Q1 and Q3 Pre Bias were optimized for each analyte individually. Chromatographic separation of lactose, LNT-II, LNT and LST-a or -b after dilution of particle-free biocatalysis-reaction or crude extract, respectively, 1:50 with H2O (LC/MS Grade), was performed on a XBridge Amide HPLC column (3.5 μm, 2.1×50 mm (Waters, USA) with a XBridge Amide guard cartridge (3.5 μm, 2.1×10 mm) (Waters, USA). Column oven was run at 35° C. The mobile phase was composed of acetonitrile:H2O with 0.1% ammonium hydroxide. A 1 μl sample was injected into the instrument; the run was performed for 3.50 min with a flow rate of 300 μl/min. Lactose, LNT-II, LNT as well as LST-a and -b were analyzed by MRM in ESI negative ionization mode. The mass spectrometer was operated at unit resolution. Lactose forms an ion of m/z 341.00 [M−H]. The precursor ion of Lactose was further fragmented in the collision cell into the fragment ions m/z 179.15, m/z 161.15 and m/z 101.05. LNT-II forms an ion of m/z 544.20 [M−H]. The precursor ion of LNT-II was further fragmented into the fragment ions m/z 382.10, m/z 161.00 and m/z 112.90. LNT forms an ion of m/z 706.20 [M−H]. The precursor ion of LNT was further fragmented into the fragment ions m/z 382.10, m/z 202.10 and m/z 142.00. LST-a and -b forms an ion of m/z 997.20 [M−H]. The precursor ion of LST-a and-b was further fragmented into the fragment ions m/z 290.15, m/z 202.15 and m/z 142.15. Collision energy, Q1 and Q3 Pre Bias were optimized for each analyte individually. Quantification methods were established using commercially available standards (Carbosynth, Compton, UK).
Twenty eight genes were identified to produce LST-a whereas only 6 enzymes synthesized LST-b. […] Irrespectively of the protein overexpression level, sialyltransferases that produced best were selected for determination of Km and Vmax.

[2] = In vivo screening in E. coli #1363/#1730 with lactose as acceptor, sialyllactose identified by TLC; format: cell-based, Escherichia coli BL21(DE3); conditions: 1.5 mM lactose, 72 to 96 hours, qualitative via TLC
Procedure: Escherichia coli BL21(DE3) #1363 and #1730 harbouring plasmids encoding for 100 sialyltransferases were grown at 30° C. in 100 ml shake flasks filled with 20 ml of mineral salts medium (Samain et al., J. Biotech. 1999, 72:33-47) supplemented with 2% (wt/vol) glucose, ampicillin 100 μg ml^−1, kanamycin 15 μg ml^−1 and zeocin 40 μg ml^−1. When the cultures reached an OD600 of 0.1 to 0.3, gene expression was induced by addition of 0.3 mM IPTG. After an incubation for one hour, 1.5 mM lactose was added to #1363 cultures whereas 1.5 mM lactose as well as 1.5 mM sialic acid was added to #1730 cultures. The incubation continued for 72 to 96 hours. Then, cells were harvested by centrifugation and mechanically disrupted in a defined volume using glass beads. Subsequently, samples were applied to thin layer chromatography (TLC) on Silica Gel 60 F254 (Merck KGaA, Darmstadt, Germany). A mixture of butanol:acetone:acetic acid:H2O (35/35/7/23 (v/v/v/v)) was used as mobile phase. For detection of the separated substances, the TLC plate was soaked with thymol reagent (0.5 g thymol solved in 95 ml ethanol, 5 ml sulfuric acid added) and heated.
In the entire screening, thirty two genes were identified to encode for α-2,3-sialyltransferases, thus producing 3′-SL. 19 enzymes synthesized 6′-SL and were depicted as α-2,6-sialyltransferases. An α-2,3- as well as an α-2,6-sialyltransferase activity could only be observed for 3 enzymes. […] The screening appeared highly accurate since the described activities of extensively characterized sialyltransferases, e. g. […] Regarding the product formation, the experimental setting allowed a semi-quantitative comparison of the screened enzymes. But to achieve deeper knowledge about their kinetic properties, the 3 potentially best performing α-2,3- and α-2,6-sialyltransferases were applied to in vitro assays.

Molecule	Relative efficacy of sialyltransferases regarding in-vitro production of sialyllacto-N-tetraoses: LST-a [1]	Production of sialyllactose in-vivo [2]
SiaT13: sialyltransferase of Streptococcus agalactiae, acc. AB050723, SEQ ID NO: 17 (protein, listed as Streptococcus agalactiae) MTNRKIYVCHTLYHLLICLYKEEIYSNLEIILSSSIPDVDNLEKKLKSKTINIHILEESSGESEELLSVLKDAGLSYSKFDSNCFIFNDATPIGRTLIKHGIYYNLIEDGLNCFTYSIFSQKLWKYYVKKYILHKIQPHGFSRYCLGIEVNSLVNLPKDPRYKKFIEVPRKELFDNVTEYQKEMAINLFGAVRVSIKSPSVLVLTQPLSIDKEFMSYNNKIETSEEQFNFYKSIVNEYINKGYNVYLKVHPRDVVDYSKLPVELLPSNVPMEIIELMLTGRFECGITHSSTALDFLTCVDKKITLVDLKDIK	24	3′-SL
SiaT16: sialyltransferase of Haemophilus ducreyi 35000HP, acc. AAP95068, SEQ ID NO: 27 (protein, listed as Haemophilus ducreyi) MLIQQNLEIYLDYATIPSLACFMHFIQHKDDVDSIRLFGLARFDIPQSIIDRYPANHLFYHNIDNRDLTAVLNQLADILAQENKRFQINLHLNLFHSIDLFFAIYPIYQQYQHKISTIQLQLYDDGSEGIVTQHSLCKIADLEQLILQHKNVLLELLTKGTANVPNPTLLRYLWNNIIDSQFHLISDHFLQHPKLQPLKRLLKRYTILDFTCYPRFNAEQKQLLKEILHISNELENLLKLLKQHNTFLFTGTTAFNLDQEKLDLLTQLHILLLNEHQNPHSTHYIGNNYLLLIKGHANSPALNHTLALHFPDAIFLPANIPFEIFAMLGFTPNKMGGFASTSYINYPTENINHLFFLTSDQPSIRTKWLDYEKQFGLMYSLLAMQKINEDQAFMCTIHN	1	3′-SL
SiaT14: sialyltransferase of Haemophilus-somnus-2336, acc. ACA31578, SEQ ID NO: 26 (protein, listed as Haemophilus somnus) MFREDNMNLIICCTPLQVIIAEKIIERYPEQKFYGVMLESFYNDKFDFYENKLKHLCHEFFCIKIARFKLERYKNLLSLLKIKNKTFDRVFLANIEKRYIHIILSNIFFKELYTFDDGTANIAPNSHLYQEYDHSLKKRITDILLPNHYNSNKVKNISKLHYSIYRCKNNIIDNIEYMPLFNLEKKYTAQDKSISILLGQPIFYDEEKNIRLIKEVIAKFKIDYYFPHPREDYYIDNVSYIKTPLIFEEFYAERSIENSIKIYTFFSSAVLNIVTKENIDRIYALKPKLTEKAYLDCYDILKDFGIKVIDI	2	3′-SL
SiaT10: sialyltransferase of Pasteurella multocida PM70, acc. AAK02272, SEQ ID NO: 4 (protein, listed as Pasteurella multocida) MKTITLYLDPASLPALNQLMDFTQNNEDKTHPRIFGLSRFKIPDNIITQYQNIHFVELKDNRPTEALFTILDQYPGNIELDIHLNIAHSVQLIRPILAYRFKHLDRVSIQRLNLYDDGSMEYVDLEKEENKDISAEIKQAEKQLSHYLLTGKIKFDNPTIARYVWQSAFPVKYHFLSTDYFEKAEFLQPLKEYLAENYQKMDWTAYQQLTPEQQAFYLTLVGFNDEVKQSLEVQQAKFIFTGTTTWEGNTDVREYYAQQQLNLLNHFTQAGGDLFIGDHYKIYFKGHPRGGEINDYILNNAKNITNIPANISFEVLMMTGLLPDKVGGVASSLYFSLPKEKISHIIFTSNKQVKSKEDALNNPYVKVMRRLGIIDESQVIFWDSLKQL	3.18 × 10^3	3′-SL, 6′-SL
SiaT15: sialyltransferase of Haemophilus ducreyi 35000HP, acc. AF101047, SEQ ID NO: 14 (protein, listed as Haemophilus ducreyi) MKEIAIISNQRMFFLYCLLTNKNVEDVFFIFEKGAMPNNLTSISHFIVLDHSKSECYDFFYFNFISCKYRLRGLDVYGADHIKGAKFFLERHRFFVVEDGMMNYSKNMYAFSLFRTRNPVILPGGFHPNVKTIFLTKDNPIPDQIAHKREIINIKTLWQAKTATEKTKILSFFEIDMQEISVIKNRSFVLYTQPLSEDKLLTEAEKIDIYRTILTKYNHSQTVIKPHPRDKTDYKQLFPDAYVMKGTYPSELLTLLGVNFNKVITLFSTAVFDYPKEKIDFYGTAVHPKLLDFFD	204	3′-SL
SiaT2: sialyltransferase of Campylobacter jejuni strain OH4384, acc. AF130466, SEQ ID NO: 10 (protein, listed as Campylobacter jejuni) MTRTRMENELIVSKNMQNIIIAGNGPSLKNINYKRLPREYDVFRCNQFYFEDKYYLGKKIKAVFFNPGVFLQQYHTAKQLILKNEYEIKNIFCSTFNLPFIESNDFLHQFYNFFPDAKLGYEVIENLKEFYAYIKYNEIYFNKRITSGVYMCAIAIALGYKTIYLCGIDFYEGDVIYPFEAMSTNIKTIFPGIKDFKPSNCHSKEYDIEALKLLKSIYKVNIYALCDDSILANHFPLSININNNFTLENKHNNSINDILLTDNTPGVSFYKNQLKADNKIMLNFYNILHSKDNLIKFLNKEIAVLKKQTTQRAKARIQNHLSYKLGQALIINSKSVLGFLSLPFIILSIVISHKQEQKAYKFKVKKNPNLALPPLETYPDYNEALKEKECFTYKLGEEFIKAGKNWYGEGYIKFIFKDVPRLKREFEKGE	749	3′-SL
